In patent US20070092940A1:

Molecular target: rabbit albumin (rabbit) (UniProt P49065)
Assay: BIAcore kinetic analysis

Chain of rabbit albumin (rabbit) (P49065 25-608 limits assumed): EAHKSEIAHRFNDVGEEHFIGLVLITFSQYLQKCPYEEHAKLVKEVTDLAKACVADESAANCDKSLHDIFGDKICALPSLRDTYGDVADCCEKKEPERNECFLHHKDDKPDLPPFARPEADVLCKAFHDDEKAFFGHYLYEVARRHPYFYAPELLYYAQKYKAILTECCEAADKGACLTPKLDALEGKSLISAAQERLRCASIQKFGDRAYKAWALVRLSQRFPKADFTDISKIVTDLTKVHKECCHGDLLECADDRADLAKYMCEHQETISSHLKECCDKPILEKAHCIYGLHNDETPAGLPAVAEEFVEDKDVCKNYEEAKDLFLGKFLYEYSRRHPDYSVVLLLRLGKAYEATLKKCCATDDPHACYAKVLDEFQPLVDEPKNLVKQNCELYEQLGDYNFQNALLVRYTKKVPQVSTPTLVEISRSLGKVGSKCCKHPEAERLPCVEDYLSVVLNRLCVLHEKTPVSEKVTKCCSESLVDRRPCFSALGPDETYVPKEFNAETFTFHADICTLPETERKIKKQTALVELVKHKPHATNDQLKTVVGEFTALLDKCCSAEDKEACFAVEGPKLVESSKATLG

Kd: 124 nM
Substance: ABP-hu4D5Fabv8 wild type
